Here are results for 2 substances from US20240425593A1.

In experiment [1] the target is monkey PD-1-hFc (monkey). In words: ELISA, coated monkey PD-1-hFc.
In experiment [2] the target is monkey PD-1-hFc (monkey). In words: ELISA, coated monkey PD-1-hFc. This is another data set of the same source.
In the next experiment the target is CD64 protein (UniProt P12314). In words: BLI (Octet ForteBio), CD64 on SA biosensor, antibody in solution.
The next experiment concerns the target FcRn protein (UniProt P55899). The experiment can be described thus: BLI (Octet ForteBio), FcRn on SA biosensor, antibody in PBST pH6.0.
In experiment [3] the target is PD-1 on Jurkat-PD-1-NFAT cells (UniProt Q15116). The experiment can be described thus: cell-based or functional assay.
Chain of PD-1 on Jurkat-PD-1-NFAT cells (Q15116 25-288 limits assumed): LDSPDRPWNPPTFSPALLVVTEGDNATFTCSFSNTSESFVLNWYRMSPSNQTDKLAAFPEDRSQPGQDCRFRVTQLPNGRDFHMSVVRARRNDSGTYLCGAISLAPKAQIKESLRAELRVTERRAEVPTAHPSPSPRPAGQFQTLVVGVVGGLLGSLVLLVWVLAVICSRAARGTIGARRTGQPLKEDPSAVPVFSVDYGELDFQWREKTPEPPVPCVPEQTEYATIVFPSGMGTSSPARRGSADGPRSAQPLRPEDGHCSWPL
Experiment [4] concerns the target full-length human PD-1 on CHO-hPD-1 cells (human) (UniProt Q15116). The experiment can be described thus: flow cytometry on CHO-hPD-1 cells with FITC-labeled antibody.
For a further experiment, the target named is human PD-1-His (human) (UniProt Q15116). The experiment can be described thus: BLI (Octet ForteBio), antibody on ProA biosensor, PD-1-His in solution.
Chain of human PD-1-His (human) (Q15116 25-170): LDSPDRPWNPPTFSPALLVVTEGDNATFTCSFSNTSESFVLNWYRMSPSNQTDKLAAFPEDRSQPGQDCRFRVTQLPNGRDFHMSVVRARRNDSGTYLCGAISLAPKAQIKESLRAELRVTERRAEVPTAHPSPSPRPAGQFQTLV
The target in experiment [5] is full-length human PD-1 on CHO-hPD-1 cells (human) (UniProt Q15116). The experiment can be described thus: flow cytometry, FITC-labelled antibody on CHO-hPD-1 cells.
Chain of full-length human PD-1 on CHO-hPD-1 cells (human) (Q15116 25-288): as the sequence (Q15116 25-288 limits assumed) above
For experiment [6], the target named is human PD-1-ECD-mFc (human; mouse) (UniProt Q15116). The experiment can be described thus: ELISA, coated human PD-1-mFc.
Chain of human PD-1-ECD-mFc (human; mouse) (Q15116 25-170): as the sequence (Q15116 25-170) above

Like-named read-outs stand apart in the source and are kept apart here.

Chain of monkey PD-1-hFc (monkey) (chain, as listed by the source limits assumed): as the sequence (Q15116 25-170) above, with D2E, V19L, T35A, Q67R, T144A counted along it
Chain of control antibody 3 (tirelizumab, IMGT ID: 757) (HC): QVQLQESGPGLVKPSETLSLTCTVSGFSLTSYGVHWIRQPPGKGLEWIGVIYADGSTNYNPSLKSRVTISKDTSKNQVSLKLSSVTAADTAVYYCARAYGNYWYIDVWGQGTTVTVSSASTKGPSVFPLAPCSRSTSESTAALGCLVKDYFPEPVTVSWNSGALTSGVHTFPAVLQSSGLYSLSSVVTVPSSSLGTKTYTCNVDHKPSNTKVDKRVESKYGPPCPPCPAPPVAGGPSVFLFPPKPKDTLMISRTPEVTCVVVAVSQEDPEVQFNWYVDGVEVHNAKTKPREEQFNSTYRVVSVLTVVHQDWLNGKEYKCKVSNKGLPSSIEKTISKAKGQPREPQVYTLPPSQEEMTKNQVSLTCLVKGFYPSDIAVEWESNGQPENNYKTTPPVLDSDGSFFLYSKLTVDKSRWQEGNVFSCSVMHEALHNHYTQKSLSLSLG
Chain of control antibody 3 (tirelizumab, IMGT ID: 757) (LC): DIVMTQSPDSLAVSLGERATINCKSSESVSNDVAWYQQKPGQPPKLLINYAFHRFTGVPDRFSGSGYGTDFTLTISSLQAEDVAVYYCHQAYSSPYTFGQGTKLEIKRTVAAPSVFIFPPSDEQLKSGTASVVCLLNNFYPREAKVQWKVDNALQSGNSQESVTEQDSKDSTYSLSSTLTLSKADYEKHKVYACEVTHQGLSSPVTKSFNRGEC
Chain of FcRn protein (P55899 24-297 limits assumed, chain 1 of 2): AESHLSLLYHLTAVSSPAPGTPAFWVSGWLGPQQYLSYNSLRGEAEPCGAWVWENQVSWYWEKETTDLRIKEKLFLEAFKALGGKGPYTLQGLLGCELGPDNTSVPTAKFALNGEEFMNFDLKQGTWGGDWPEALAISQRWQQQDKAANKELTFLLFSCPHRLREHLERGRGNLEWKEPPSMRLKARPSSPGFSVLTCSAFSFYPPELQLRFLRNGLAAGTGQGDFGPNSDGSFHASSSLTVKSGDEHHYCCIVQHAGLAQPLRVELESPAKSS
Chain of FcRn protein (chain, as listed by the source limits assumed, chain 2 of 2): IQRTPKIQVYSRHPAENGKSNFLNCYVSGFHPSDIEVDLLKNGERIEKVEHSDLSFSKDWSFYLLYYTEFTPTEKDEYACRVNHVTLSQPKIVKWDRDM
Chain of CD64 protein (P12314 16-288 limits assumed): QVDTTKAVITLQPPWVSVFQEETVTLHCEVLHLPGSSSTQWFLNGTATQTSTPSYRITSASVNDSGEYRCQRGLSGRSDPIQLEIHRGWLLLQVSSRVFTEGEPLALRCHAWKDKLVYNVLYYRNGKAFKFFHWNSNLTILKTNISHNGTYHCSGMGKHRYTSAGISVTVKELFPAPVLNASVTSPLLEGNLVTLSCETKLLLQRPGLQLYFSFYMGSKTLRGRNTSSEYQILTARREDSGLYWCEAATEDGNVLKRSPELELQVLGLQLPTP

As for “control antibody 1 (pembrolizumab, IMGT ID: 472)”, the 50% effective concentration (EC50) in the experiment with monkey PD-1-hFc (monkey) [1] turned out to be 0.32 nM; in the experiment with monkey PD-1-hFc (monkey) [2], 0.131 nM. Further, the results for the Kd with CD64 protein and with FcRn protein were 6.94 nM and 16.8 nM, respectively.
As for “control antibody 3 (tirelizumab, IMGT ID: 757)”, the EC50 turned out to be 0.278 nM with monkey PD-1-hFc (monkey) [1], 0.094 nM in experiment [5] and 0.121 nM in experiment [6]. The EC50 by the PD-1/PD-L1 luciferase reporter system in experiment [3] came out at 3.79 nM. Also, the Kd came out at 14.5 nM in the experiment with FcRn protein and 5.95 nM in the experiment with human PD-1-His (human). Besides, the EC50 (read off the curve) in [4] came to 10 ng/mL.
